These results are taken from paper PMC9279507.

In the assay the target is T1, 6XHis-tagged TgIST-R2 (G365-S420).
T1 chain: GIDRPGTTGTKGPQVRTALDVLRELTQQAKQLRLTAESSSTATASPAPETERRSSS
Kind of assay: nickel affinity copurification, SDS-PAGE, Coomassie blue band quantification. Conditions: chain shown with the change;; parent: est. 1.0; read off a plot.

B1: STAT1cc (STAT1 core fragment, A656C and N658C, locked dimer), tag-free, P42224 M654A (protein)
chain: STVMLDKQKELDSKVRNVKDKVMCIEHEIKSLEDLQDEYDFKCKTLQNREHETNGVAKSDQKQEQLLLKKMYLMLDNKRKEVVHKIIELLNVTELTQNALINDELVEWKRRQQSACIGGPPNACLDQLQNWFTIVAESLQQVRQQLKKLEELEQKYTYEHDPITKNKQVLWDRTFSLFQQLIQSSFVVERQPCMPTHPQRPLVLKTGVQFTVKLRLLVKLQELNYNLKVKVLFDKDVNERNTVKGFRKFNILGTHTKVMNMEESTNGSLAAEFRHLQLKEQKNAGTRTNEGPLIVTEELHSLSFETQLCQPGLVIDLETTSLPVVVISNVSQLPSGWASILWYNMLVAEPRNLSFFLTPPCARWAQLSEVLSWQFSSVTKRGLNVDQLNMLGEKLLGPNASPDGLIPWTRFCKENINDKNFPFWLWIESILELIKKHLLPLWNDGCIMGFISKERERALLKDQQPGTFLLRFSESSREGAITFTWVERSQNGGEPDFHAVEPYTKKELSAVTFPDIIRNYKVAACECIPENPLKYLYPNIDKDHAFGKYYSRPKEAPEPMELDGPKGTGYIKTELISVSEVH
Turning to B1, the ratio to parent is 0.04.

B2: STAT1cc (STAT1 core fragment, A656C and N658C, locked dimer), tag-free, P42224 E618A (protein)
chain: MSQWYELQQLDSKFLEQVHQLYDDSFPMEIRQYLAQWLEKQDWEHAANDVSFATIRFHDLLSQLDDQYSRFSLENNFLLQHNIRKSKRNLQDNFQEDPIQMSMIIYSCLKEERKILENAQRFNQAQSGNIQSTVMLDKQKELDSKVRNVKDKVMCIEHEIKSLEDLQDEYDFKCKTLQNREHETNGVAKSDQKQEQLLLKKMYLMLDNKRKEVVHKIIELLNVTELTQNALINDELVEWKRRQQSACIGGPPNACLDQLQNWFTIVAESLQQVRQQLKKLEELEQKYTYEHDPITKNKQVLWDRTFSLFQQLIQSSFVVERQPCMPTHPQRPLVLKTGVQFTVKLRLLVKLQELNYNLKVKVLFDKDVNERNTVKGFRKFNILGTHTKVMNMEESTNGSLAAEFRHLQLKEQKNAGTRTNEGPLIVTEELHSLSFETQLCQPGLVIDLETTSLPVVVISNVSQLPSGWASILWYNMLVAEPRNLSFFLTPPCARWAQLSEVLSWQFSSVTKRGLNVDQLNMLGEKLLGPNASPDGLIPWTRFCKENINDKNFPFWLWIESILELIKKHLLPLWNDGCIMGFISKERERALLKDQQPGTFLLRFSESSREGAITFTWVARSQNGGEPDFHAVEPYTKKELSAVTFPDIIRNYKVMAAENIPENPLKYLYPNIDKDHAFGKYYSRPKEAPEPMELDGPKGTGYIKTELISVSEVHPSRLQTTDNLLPMSPEEFDEVSRIVGSVEFDSMMNTV
As for B2, the ratio to parent was found to be 0.82.

B3: STAT1cc (STAT1 core fragment, A656C and N658C, locked dimer), tag-free, P42224 N662K (protein)
chain: MSQWYELQQLDSKFLEQVHQLYDDSFPMEIRQYLAQWLEKQDWEHAANDVSFATIRFHDLLSQLDDQYSRFSLENNFLLQHNIRKSKRNLQDNFQEDPIQMSMIIYSCLKEERKILENAQRFNQAQSGNIQSTVMLDKQKELDSKVRNVKDKVMCIEHEIKSLEDLQDEYDFKCKTLQNREHETNGVAKSDQKQEQLLLKKMYLMLDNKRKEVVHKIIELLNVTELTQNALINDELVEWKRRQQSACIGGPPNACLDQLQNWFTIVAESLQQVRQQLKKLEELEQKYTYEHDPITKNKQVLWDRTFSLFQQLIQSSFVVERQPCMPTHPQRPLVLKTGVQFTVKLRLLVKLQELNYNLKVKVLFDKDVNERNTVKGFRKFNILGTHTKVMNMEESTNGSLAAEFRHLQLKEQKNAGTRTNEGPLIVTEELHSLSFETQLCQPGLVIDLETTSLPVVVISNVSQLPSGWASILWYNMLVAEPRNLSFFLTPPCARWAQLSEVLSWQFSSVTKRGLNVDQLNMLGEKLLGPNASPDGLIPWTRFCKENINDKNFPFWLWIESILELIKKHLLPLWNDGCIMGFISKERERALLKDQQPGTFLLRFSESSREGAITFTWVERSQNGGEPDFHAVEPYTKKELSAVTFPDIIRNYKVMAAENIPEKPLKYLYPNIDKDHAFGKYYSRPKEAPEPMELDGPKGTGYIKTELISVSEVHPSRLQTTDNLLPMSPEEFDEVSRIVGSVEFDSMMNTV
Regarding B3, the ratio to parent was determined as 0.26.

B4: STAT1cc (STAT1 core fragment, A656C and N658C, locked dimer), tag-free, P42224 Q621A (protein)
chain: MSQWYELQQLDSKFLEQVHQLYDDSFPMEIRQYLAQWLEKQDWEHAANDVSFATIRFHDLLSQLDDQYSRFSLENNFLLQHNIRKSKRNLQDNFQEDPIQMSMIIYSCLKEERKILENAQRFNQAQSGNIQSTVMLDKQKELDSKVRNVKDKVMCIEHEIKSLEDLQDEYDFKCKTLQNREHETNGVAKSDQKQEQLLLKKMYLMLDNKRKEVVHKIIELLNVTELTQNALINDELVEWKRRQQSACIGGPPNACLDQLQNWFTIVAESLQQVRQQLKKLEELEQKYTYEHDPITKNKQVLWDRTFSLFQQLIQSSFVVERQPCMPTHPQRPLVLKTGVQFTVKLRLLVKLQELNYNLKVKVLFDKDVNERNTVKGFRKFNILGTHTKVMNMEESTNGSLAAEFRHLQLKEQKNAGTRTNEGPLIVTEELHSLSFETQLCQPGLVIDLETTSLPVVVISNVSQLPSGWASILWYNMLVAEPRNLSFFLTPPCARWAQLSEVLSWQFSSVTKRGLNVDQLNMLGEKLLGPNASPDGLIPWTRFCKENINDKNFPFWLWIESILELIKKHLLPLWNDGCIMGFISKERERALLKDQQPGTFLLRFSESSREGAITFTWVERSANGGEPDFHAVEPYTKKELSAVTFPDIIRNYKVMAAENIPENPLKYLYPNIDKDHAFGKYYSRPKEAPEPMELDGPKGTGYIKTELISVSEVHPSRLQTTDNLLPMSPEEFDEVSRIVGSVEFDSMMNTV
Turning to B4, the ratio to parent turned out to be 0.87.

B5: STAT1cc (STAT1 core fragment, A656C and N658C, locked dimer), tag-free, P42224 Q621W (protein)
chain: MSQWYELQQLDSKFLEQVHQLYDDSFPMEIRQYLAQWLEKQDWEHAANDVSFATIRFHDLLSQLDDQYSRFSLENNFLLQHNIRKSKRNLQDNFQEDPIQMSMIIYSCLKEERKILENAQRFNQAQSGNIQSTVMLDKQKELDSKVRNVKDKVMCIEHEIKSLEDLQDEYDFKCKTLQNREHETNGVAKSDQKQEQLLLKKMYLMLDNKRKEVVHKIIELLNVTELTQNALINDELVEWKRRQQSACIGGPPNACLDQLQNWFTIVAESLQQVRQQLKKLEELEQKYTYEHDPITKNKQVLWDRTFSLFQQLIQSSFVVERQPCMPTHPQRPLVLKTGVQFTVKLRLLVKLQELNYNLKVKVLFDKDVNERNTVKGFRKFNILGTHTKVMNMEESTNGSLAAEFRHLQLKEQKNAGTRTNEGPLIVTEELHSLSFETQLCQPGLVIDLETTSLPVVVISNVSQLPSGWASILWYNMLVAEPRNLSFFLTPPCARWAQLSEVLSWQFSSVTKRGLNVDQLNMLGEKLLGPNASPDGLIPWTRFCKENINDKNFPFWLWIESILELIKKHLLPLWNDGCIMGFISKERERALLKDQQPGTFLLRFSESSREGAITFTWVERSWNGGEPDFHAVEPYTKKELSAVTFPDIIRNYKVMAAENIPENPLKYLYPNIDKDHAFGKYYSRPKEAPEPMELDGPKGTGYIKTELISVSEVHPSRLQTTDNLLPMSPEEFDEVSRIVGSVEFDSMMNTV
With B5, the ratio to parent was determined as 1.1.

B6: STAT1cc (STAT1 core fragment, A656C and N658C, locked dimer), tag-free, P42224 D593A (protein)
chain: MSQWYELQQLDSKFLEQVHQLYDDSFPMEIRQYLAQWLEKQDWEHAANDVSFATIRFHDLLSQLDDQYSRFSLENNFLLQHNIRKSKRNLQDNFQEDPIQMSMIIYSCLKEERKILENAQRFNQAQSGNIQSTVMLDKQKELDSKVRNVKDKVMCIEHEIKSLEDLQDEYDFKCKTLQNREHETNGVAKSDQKQEQLLLKKMYLMLDNKRKEVVHKIIELLNVTELTQNALINDELVEWKRRQQSACIGGPPNACLDQLQNWFTIVAESLQQVRQQLKKLEELEQKYTYEHDPITKNKQVLWDRTFSLFQQLIQSSFVVERQPCMPTHPQRPLVLKTGVQFTVKLRLLVKLQELNYNLKVKVLFDKDVNERNTVKGFRKFNILGTHTKVMNMEESTNGSLAAEFRHLQLKEQKNAGTRTNEGPLIVTEELHSLSFETQLCQPGLVIDLETTSLPVVVISNVSQLPSGWASILWYNMLVAEPRNLSFFLTPPCARWAQLSEVLSWQFSSVTKRGLNVDQLNMLGEKLLGPNASPDGLIPWTRFCKENINDKNFPFWLWIESILELIKKHLLPLWNDGCIMGFISKERERALLKAQQPGTFLLRFSESSREGAITFTWVERSQNGGEPDFHAVEPYTKKELSAVTFPDIIRNYKVMAAENIPENPLKYLYPNIDKDHAFGKYYSRPKEAPEPMELDGPKGTGYIKTELISVSEVHPSRLQTTDNLLPMSPEEFDEVSRIVGSVEFDSMMNTV
Take B6: the ratio to parent was 0.9.

B7: STAT1cc (STAT1 core fragment, A656C and N658C, locked dimer), tag-free, P42224 E632A (protein)
chain: MSQWYELQQLDSKFLEQVHQLYDDSFPMEIRQYLAQWLEKQDWEHAANDVSFATIRFHDLLSQLDDQYSRFSLENNFLLQHNIRKSKRNLQDNFQEDPIQMSMIIYSCLKEERKILENAQRFNQAQSGNIQSTVMLDKQKELDSKVRNVKDKVMCIEHEIKSLEDLQDEYDFKCKTLQNREHETNGVAKSDQKQEQLLLKKMYLMLDNKRKEVVHKIIELLNVTELTQNALINDELVEWKRRQQSACIGGPPNACLDQLQNWFTIVAESLQQVRQQLKKLEELEQKYTYEHDPITKNKQVLWDRTFSLFQQLIQSSFVVERQPCMPTHPQRPLVLKTGVQFTVKLRLLVKLQELNYNLKVKVLFDKDVNERNTVKGFRKFNILGTHTKVMNMEESTNGSLAAEFRHLQLKEQKNAGTRTNEGPLIVTEELHSLSFETQLCQPGLVIDLETTSLPVVVISNVSQLPSGWASILWYNMLVAEPRNLSFFLTPPCARWAQLSEVLSWQFSSVTKRGLNVDQLNMLGEKLLGPNASPDGLIPWTRFCKENINDKNFPFWLWIESILELIKKHLLPLWNDGCIMGFISKERERALLKDQQPGTFLLRFSESSREGAITFTWVERSQNGGEPDFHAVAPYTKKELSAVTFPDIIRNYKVMAAENIPENPLKYLYPNIDKDHAFGKYYSRPKEAPEPMELDGPKGTGYIKTELISVSEVHPSRLQTTDNLLPMSPEEFDEVSRIVGSVEFDSMMNTV
For the molecule B7, the ratio to parent came out at 0.57.

B8: STAT1cc (STAT1 core fragment, A656C and N658C, locked dimer), tag-free, P42224 D672A (protein)
chain: MSQWYELQQLDSKFLEQVHQLYDDSFPMEIRQYLAQWLEKQDWEHAANDVSFATIRFHDLLSQLDDQYSRFSLENNFLLQHNIRKSKRNLQDNFQEDPIQMSMIIYSCLKEERKILENAQRFNQAQSGNIQSTVMLDKQKELDSKVRNVKDKVMCIEHEIKSLEDLQDEYDFKCKTLQNREHETNGVAKSDQKQEQLLLKKMYLMLDNKRKEVVHKIIELLNVTELTQNALINDELVEWKRRQQSACIGGPPNACLDQLQNWFTIVAESLQQVRQQLKKLEELEQKYTYEHDPITKNKQVLWDRTFSLFQQLIQSSFVVERQPCMPTHPQRPLVLKTGVQFTVKLRLLVKLQELNYNLKVKVLFDKDVNERNTVKGFRKFNILGTHTKVMNMEESTNGSLAAEFRHLQLKEQKNAGTRTNEGPLIVTEELHSLSFETQLCQPGLVIDLETTSLPVVVISNVSQLPSGWASILWYNMLVAEPRNLSFFLTPPCARWAQLSEVLSWQFSSVTKRGLNVDQLNMLGEKLLGPNASPDGLIPWTRFCKENINDKNFPFWLWIESILELIKKHLLPLWNDGCIMGFISKERERALLKDQQPGTFLLRFSESSREGAITFTWVERSQNGGEPDFHAVEPYTKKELSAVTFPDIIRNYKVMAAENIPENPLKYLYPNIAKDHAFGKYYSRPKEAPEPMELDGPKGTGYIKTELISVSEVHPSRLQTTDNLLPMSPEEFDEVSRIVGSVEFDSMMNTV
Consider B8, for which the ratio to parent was 0.93.
